Results reported in PMC4914320.

Molecular target: Telomeric repeat binding factor 2 (TRF2), endogenous (human (endogenous in C1, UTC8505, RD and HEK293T cells))
Experiment: proximity ligation; Duolink PLA in fixed, permeabilised C1 cells with antibodies to HMGA2 (D1A7), TRF2 and RAP1; a minimum of 30 nuclei quantified

B1: High Mobility Group AT-hook protein 2 (HMGA2), endogenous (natural protein)
chain: MSARGEGAGQPSTSAQGQPAAPAPQKRGRGRPRKQQQEPTGEPSPKRPRGRPKGSKNKSPSKAAQKKAEATGEKRPRGRPRKWPQQVVQKKPAQEETEETSSQESAEED
  PLA foci per nucleus (PLA foci per nucleus): 5
